# What was measured:
# [1] = molecular target: T1, HER3 Snap-tagged, on HEK cells (human, UniProt P21860 20-1342, Snap-tag labelled with Lumi4-terbium cryptate donor); assay: Tag-Lite HTRF on HER3 Snap-tagged HEK cells, d2-labelled mAb, without NRG
# T1 construct: whole, on cells; also called HER3 Snap-tagged HEK cells; not shown: Snap-tag (CisBio Tag-Lite)
# Procedure: (§1) After 16 h of incubation, the fluorescence of Lumi4-terbium and d2 was measured respectively at 620 and 665 nm (60 μs delay, 400 μs integration) upon 337 nm excitation on a Pherastar FS instrument.
# [2] = molecular target: T1, HER3 Snap-tagged, on HEK cells; assay: Tag-Lite HTRF on HER3 Snap-tagged HEK cells, with NRG against without NRG
# Procedure: as §1
# [3] = molecular target: T1, HER3 Snap-tagged, on HEK cells; assay: Tag-Lite HTRF on HER3 Snap-tagged HEK cells, d2-labelled mAb, co-incubated with NRG
# Procedure: as §1
# [4] = molecular target: T1, HER3 Snap-tagged, on HEK cells; assay: Tag-Lite HTRF on HER3 Snap-tagged HEK cells; d2-labelled 9F7-F11 varied; without NRG
# Procedure: as §1
# [5] = molecular target: T1, HER3 Snap-tagged, on HEK cells; assay: Tag-Lite HTRF on HER3 Snap-tagged HEK cells; d2-labelled 9F7-F11 varied; co-incubated with NRG (legend printed 'NRG 100 mM')
# Procedure: as §1
# [6] = molecular target: T2, human HER3 receptor on cells (human, UniProt P21860 20-1342); assay: fluorescence of d2-labelled NRG on HER2/HER3-transfected 3T3 fibroblasts; 9F7-F11 varied; half-maximal enhancement of the binding of labelled NRG to HER3
# T2 construct: whole, on cells; also called ErbB3
# Procedure: (§2) After KREBS washing, fluorescence at 620/670 nm was measured using a Pherastar microplate reader.
# [7] = molecular target: T2, human HER3 receptor on cells; assay: flow cytometry competition on SKBR3 cells; NRG varied, displaced molecule: antibody B at a fixed concentration
# Procedure: Cells were then washed and further incubated with a 1:60 dilution of appropriate FITC-conjugated secondary antibody (Sigma) for 45 min on ice, before cytometry analysis on a Quanta apparatus (Beckman-Coulter).
# [8] = molecular target: T2, human HER3 receptor on cells; assay: fluorescence of d2-labelled NRG on HER2/HER3-transfected 3T3 fibroblasts; unlabelled NRG varied, displaced molecule: d2-labelled NRG
# Procedure: as §2
binder,measurement,setting,value
"murine anti-human-HER3 monoclonal antibody 9F7-F11 (antibody, V domains shown, Murine hybridoma antibody; also called mAb 9F7-F11; anti-HER3 Ab 9F7-F11) VH: EVKLVESGGGLVQPGGSLKLSCAASGFTFSSYTMSWVRQTPEKRLEWVAYISDGGGVTYYPDTIKGRFTISRDNAKNTLYLQMSSLKSEDTAMYYCARDRYGLFAYWGQGTLVTVSA VL: DIVMTQSQKFMSTSVGDRVSITCKASQNVGIAVAWYQQKPGQSPKLLIYSASNRYTGVPDRFTGSGSGTDFTLTISNMQSEDLADYFCQQYSNYPYTFGGGTKLEIK",Kd,[1],2.33 nM
same,fold increase of affinity with NRG against without NRG,[2],6 fold
same,Kd,[3],0.47 nM
same,EC50 (read off the curve),[4],~2 nM
same,EC50 (read off the curve),[5],~0.5 nM
same,EC50 (read off the curve),[6],~10 nM
"neuregulin (NRG) (ligand, UniProt Q02297-6 177-241, looked up, also: d2 dye label as tracer, site not given here, also called neuregulin 131 (as printed, probably neuregulin beta1); heregulin) SHLVKCAEKEKTFCVNGGECFMVKDLSNPSRYLCKCPNEFTGDRCQNYVMASFYKHLGIEFMEAE",IC50 (read off the curve),[7],~2 nM
same,IC50 (read off the curve),[8],~5 nM

# Source: US20160319033A1 (INSERM INSTITUT NATIONAL DE LA SANTE ET DE LA RECHERCHE …, published 2016)
